Assay results from patent publication US6858210B1, “Therapeutic and diagnostic domain 1 β2GPI polypeptides and methods of using same” (La Jolla Pharmaceutical Co., priority 1998, dated 2005).
Like-named read-outs stand apart in the source and are kept apart here. Each block holds one molecule with its values, some of them ahead of it.

Key:
[1] = system: antiphospholipid antibody in plasma from patient 6501; assay: Competitive antibody binding ELISA with patient plasma on β2GPI coated plates; set-up: species or system human; conditions: plasma patient 6501, 1:200
Description: Nunc Maxisorp microplates (Nalge Nunc International, Denmark) were coated with 100 μL/well of β2GPI at 2.5 μg/mL in PBS, incubated for 2 hours at room temperature, and blocked for 2 hours at room temperature with 250 μl/well of 2% nonfat milk with […] (Sigma Chemical Co.). […] After incubation for one hour at room temperature the plates were washed 5× with TBS. To each well was added 100 μL of alkaline phosphatase-conjugated anti-human IgG, gamma chain specific (Zymed) diluted 1:1000 in 2% nonfat milk with 0.4% Tween-80. After one hour at room temperature the plates were washed 5× with TBS. To each well was added 100 μl PPMP chromogenic substrate solution for color development at room temperature. Optical absorbance per well was determined at A550nm in a commercial microplate reader (Bio-Tek Instruments EL3 11).

[2] = system: affinity purified β2GPI-dependent antiphospholipid antibody; assay: Competitive inhibition ELISA: recombinant β2GPI proteins compete for antibody binding to coated full length recombinant β2GPI; set-up: species or system human; conditions: for IC50: read-out: 50% (concentration to give 50% inhibition)
Description: Microtiter plates (MaxiSorp™, Nalge Nunc International, Denmark) were coated with 50 μl of full length recombinant β2GPI at 10 μg/ml in 0.1 M bicarbonate, pH 9.5, incubated overnight at 4° C., washed three times with 0.15 M PBS, pH 7.2, and blocked for one hour at room temperature with 75 μl of 2% Non-fat Dried Milk (Carnation, 2% NFDM). Test inhibitors were diluted in 2% NFDM and 25 μl of each dilution was added to coated wells. Affinity purified β2GPI-dependent antiphospholipid antibody was diluted in 2% NFDM and 25 μl, of a constant concentration, was added to the wells, including a group of wells that had no inhibitor, which acted as the positive controls. The contents of the wells were mixed and the plates were incubated at 37° C. for one hour. The plates were washed three times with PBS, 50 μl of alkaline phosphatase conjugated anti-human IgG, gamma chain specific, (Zymed #62-8422) diluted appropriately in 2% NFDM was added and incubated at 37° C. for one hour. The plates were washed three times with PBS, 50 μl of alkaline phosphatase PPMP chromogenic substrate solution was added and incubated for 30 minutes, at room temperature. The Optical Density, at 550 nm, was determined by reading the plates in a microplate autoreader (Bio-Teck Instruments, model EL3 11). The percent inhibition was determined by dividing the OD550 obtained in the presence of inhibitor by the mean OD550 obtained from the wells without inhibitor and then multiplying by 100 (more particularly, [mean A550 obtained from control wells without inhibitor less A550 of background] minus [A550 obtained in presence of inhibitor less A550 of background] divided by [mean A550 obtained from control wells without inhibitor less A550 of background] times 100).
Seven to nine different recombinant β2GPI mutant proteins were used to determine the antigenic specificity of affinity purified β2GPI-dependent antiphospholipid antibody preparations from 13 different patients. Each mutant recombinant β2GPI protein was tested, in a dose dependent fashion, for its ability to inhibit affinity purified β2GPI-dependent antiphospholipid antibody from binding to full length recombinant β2GPI. The following values were also observed for domain 1 only recombinant protein (1 - - - -; see Table 2 for designations): […]

rabbit anti-β2GPI = assay: Direct binding ELISA, nickel chelate-coated wells, rabbit antibody; conditions: O.D. at 550 nm
Description: (§1) Nickel Chelate-coated microwell plates (NCP 010 00 Xenopore Corp. 374 Midland Ave. Saddle Brook, N.J. USA) were coated with 50 μl of serial dilutions of the various recombinant β2GPI, in PBS, at room temperature for 2 hours. The plates were washed three times with PBS and blocked with 75 μl of a 1% gelatin (Sigma #G-2500) in PBS for one hour room temperature. […] The plates were washed three times with PBS, 50 μl of alkaline phosphatase conjugated anti-immunoglobulin (anti-human IgG, gamma chain specific, Zymed #62-8422) or anti-rabbit IgG (Zymed #62-6122) diluted appropriately in 1% gelatin was added and incubated at 37° C. for one hour. The plates were washed three times with PBS, 50 μl of alkaline phosphatase PPMP chromogenic substrate solution was added and incubated for 30 minutes at room temperature. The optical density, at 550 nm, was determined by reading the plates in a microplate autoreader (Bio-Teck Instruments, model EL311).
(§2) Seven to nine different recombinant β2GPI mutant proteins were examined to determine if they could support the direct binding of affinity purified β2GPI-dependent antiphospholipid antibody preparations in the absence of anionic phospholipid. All recombinant mutant β2GPI were assayed with affinity purified β2GPI-dependent antiphospholipid antibody preparations from 11 different patients. Each mutant recombinant β2GPI protein was tested, in a dose dependent fashion and GST-6his was included as a negative control. The recombinant mutant β2GPI proteins were bound to nickel coated microtiter plates via their 6-his tail. All recombinant mutant β2GPI proteins tested bound rabbit anti-β2GPI showing that they were assessable by antibody (FIG. 5).

[3] = system: affinity purified β2GPI-dependent antiphospholipid antibody; assay: Direct binding ELISA, nickel chelate-coated wells charged with recombinant β2GPI proteins (no cardiolipin); set-up: species or system human; conditions: O.D. at 550 nm
Description: as §1, §2

- competition for antiphospholipid antibody binding to β2GPI [1]: no such competition
B1: Reduced and alkylated domain 1: β2GPI domain 1 polypeptide that had been reduced and alkylated, negative control (protein)
chain: GRTCPKPDDLPFSTVVPLKTFYEPGEEITYSCKPGYVSRGGMRKFICPLTGLWPINTLKCTPRV
modifications: also: reduced and alkylated cysteines, alkylating agent not given here
notes: β2GPI domain 1 polypeptide that had been reduced and alkylated, negative control

- Max (maximum inhibition observed at concentrations tested) ([2]; Ab 6203): 10%
- IC50 ([2]; Ab 6203): > 40 µM
- Max (maximum inhibition observed at concentrations tested) ([2]; Ab 6501): 15%
- IC50 ([2]; Ab 6501): > 40 µM
- Max (maximum inhibition observed at concentrations tested) ([2]; Ab 6509): 20%
- IC50 ([2]; Ab 6509): > 5 µM
- Max (maximum inhibition observed at concentrations tested) ([2]; Ab 6626): 15%
- IC50 ([2]; Ab 6626): > 40 µM
- Max (maximum inhibition observed at concentrations tested) ([2]; Ab 6632): 20%
- IC50 ([2]; Ab 6632): > 40 µM
- Max (maximum inhibition observed at concentrations tested) ([2]; Ab 6641): 20%
- IC50 ([2]; Ab 6641): > 5 µM
- Max (maximum inhibition observed at concentrations tested) ([2]; Ab 6644): 10%
- IC50 ([2]; Ab 6644): > 40 µM
- Max (maximum inhibition observed at concentrations tested) ([2]; Ab 6652): 20%
- IC50 ([2]; Ab 6652): > 5 µM
- Max (maximum inhibition observed at concentrations tested) ([2]; Ab 6701): 15%
- IC50 ([2]; Ab 6701): > 5 µM
- Max (maximum inhibition observed at concentrations tested) ([2]; Ab 7008): 20%
- IC50 ([2]; Ab 7008): > 40 µM
- Max (maximum inhibition observed at concentrations tested) ([2]; Ab 7015): 10%
- IC50 ([2]; Ab 7015): > 40 µM
- Max (maximum inhibition observed at concentrations tested) ([2]; Ab 7101): 5%
- IC50 ([2]; Ab 7101): > 40 µM
- Max (maximum inhibition observed at concentrations tested) ([2]; Ab 7104): 5%
- IC50 ([2]; Ab 7104): > 40 µM
B2: ---45: recombinant β2GPI deletion mutant with domains 4, 5 (protein)
chain: GREVKCPFPSRPDNGFVNYPAKPTLYYKDKATFGCHDGYSLDGPEEIECTKLGNWSAMPSCKASCKLPVKKATVVYQGERVKIQEKFKNGMLHGDKVSFFCKNKEKKCSYTEDAQCIDGTIEVPKCFKEHSSLAFWKTDASDVKPCGHHHHHH
- Maximum O.D. (rabbit anti-β2GPI): 1.941
- Maximum O.D. ([3]; Ab 6203): 0.142
- Maximum O.D. ([3]; Ab 6501): 0.086
- Maximum O.D. ([3]; Ab 6626): 0.086
- Maximum O.D. ([3]; Ab 6632): 0.000
- Maximum O.D. ([3]; Ab 6641): 0.112
- Maximum O.D. ([3]; Ab 6652): 0.013
- Maximum O.D. ([3]; Ab 6701): 0.000
- Maximum O.D. ([3]; Ab 7008): 0.030
- Maximum O.D. ([3]; Ab 7015): 0.167
- Maximum O.D. ([3]; Ab 7101): 0.167
